According to paper PMC6105683 (Nature Communications, 2018):

Tests used:
Experiment in all cases: MST
GST-cGAS [1] = test system: GST-cGAS
GST-ZCCHC3 = test system: GST-ZCCHC3
GST-ZCCHC3;GST-cGAS = test system: GST-ZCCHC3;GST-cGAS
GST-cGAS [2] = molecular target: T1, GST-cGAS (UniProt Q8N884 1-522); conditions: both partners purified
T1 construct: also called recombinant cGAS
T1 sequence (Q8N884 whole entry): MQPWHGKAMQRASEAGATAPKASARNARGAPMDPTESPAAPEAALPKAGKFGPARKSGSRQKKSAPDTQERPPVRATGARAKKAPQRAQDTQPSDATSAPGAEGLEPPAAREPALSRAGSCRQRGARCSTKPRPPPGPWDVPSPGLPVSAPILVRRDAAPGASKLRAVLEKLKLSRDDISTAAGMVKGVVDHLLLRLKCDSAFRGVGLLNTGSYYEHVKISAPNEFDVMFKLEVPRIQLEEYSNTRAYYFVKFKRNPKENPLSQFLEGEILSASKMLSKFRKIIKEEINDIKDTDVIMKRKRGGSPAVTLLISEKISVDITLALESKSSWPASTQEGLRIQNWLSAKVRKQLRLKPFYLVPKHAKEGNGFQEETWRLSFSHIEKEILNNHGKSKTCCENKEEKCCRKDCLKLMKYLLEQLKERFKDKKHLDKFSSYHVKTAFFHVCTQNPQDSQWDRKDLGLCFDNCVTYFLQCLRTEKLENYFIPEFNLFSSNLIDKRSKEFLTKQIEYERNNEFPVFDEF

Row | Kd (GST-cGAS [2]) [nM] | Molecule | Kd (GST-cGAS [1]) [nM] | Kd (GST-ZCCHC3) [nM] | Kd (GST-ZCCHC3;GST-cGAS) [nM]
1 |  | HSV60 | 600 | 866 | 7.62
2 | 79.6 ± 12.5 | GST-ZCCHC3 (natural protein, UniProt Q9NUD5 1-403, looked up, lysine residues labelled with a Blue-NHS labeling kit, dye:protein molar ratio of 3, also called recombinant ZCCHC3) MATGGGAEEERKRGRPQLLPPARPAARGEEADGGREKMGWAQVVKNLAEKKGEFREPRPPRREEESGGGGGSAGLGGPAGLAAPDLGDFPPAGRGDPKGRRRDPAGEAVDPRKKKGAAEAGRRKKAEAAAAAMATPARPGEAEDAAERPLQDEPAAAAGPGKGRFLVRICFQGDEGACPTRDFVVGALILRSIGMDPSDIYAVIQIPGSREFDVSFRSAEKLALFLRVYEEKREQEDCWENFVVLGRSKSSLKTLFILFRNETVDVEDIVTWLKRHCDVLAVPVKVTDRFGIWTGEYKCEIELRQGEGGVRHLPGAFFLGAERGYSWYKGQPKTCFKCGSRTHMSGSCTQDRCFRCGEEGHLSPYCRKGIVCNLCGKRGHAFAQCPKAVHNSVAAQLTGVAGH |  |  | 
